Assays:
Type in all cases: biochemical
[1] = Kinetic studies of the hydration reaction of 3-methylcrotonyl-CoA; conditions: 0-4 mM 3-methylcrotonyl-CoA, 0.01 mg/ml enzyme, 30° C., pH 7.0
Method: (§1) The enzymatic assays were conducted in total reaction volume of 0.2 ml
(§2) The standard reaction mixture contained:
0-4 mM 3-methylcrotonyl-CoA
0.01 mg/ml 3-hydroxypropionyl-CoA dehydratase from Metallosphaera sedula.
Assays were incubated for 0, 2, 4, 8, 16 min with shaking at 30° C. and the reactions were stopped by the addition of 100 μl of acetonitrile. The amount of 3-hydroxyisovaleryl-CoA was quantified according to HPLC-based procedure described in Example 3.
The graph depicting 3-hydroxyisovaleryl-CoA formation as a function of time at different substrate concentrations is shown in the FIG. 15.

[2] = Enzyme-catalyzed hydrolysis of 3-hydroxyisovaleryl-CoA into 3-hydroxyisovaleric acid; conditions: 10 mM 3-hydroxyisovaleryl-CoA, 1 mg/ml thioesterase, 30 min, 30° C.
Method: The gene coding for acyl-CoA thioesterase II from Pseudomonas putida was synthesized and the corresponding enzymes were further produced according to the procedure described in Example 1.
Provided vectors contained a stretch of 6 histidine codons after the methionine initiation codon. The corresponding enzymes were further produced according to the procedure described in Example 1.
as §1, §2
10 mM 3-hydroxyisovaleryl-CoA
1 mg/ml of purified thioesterase
The assays were incubated for 30 min with shaking at 30° C. and the reactions were stopped by the addition of 0.1 ml of acetonitrile. The amount of 3-hydroxyisovaleryl-CoA was quantified according to HPLC-based procedure described in Example 3.
In these conditions, the 3-hydroxyisovaleryl-CoA retention time was 4.40 min and coenzyme A (CoA) retention time was 3.96 min.
Additionally, 3-hydroxyisovaleric acid production was analyzed according to the procedure described en Example 6.

[3] = Enzyme-catalyzed hydrolysis of 3-methylcrotonyl-CoA into 3-methylcrotonic acid and free coenzyme A; conditions: 10 mM 3-methylcrotonyl-CoA, 1 mg/ml thioesterase, 30 min, 30° C.
Text: The gene coding for acyl-CoA thioesterase II from Pseudomonas putida was synthesized according to the procedure as described in Example 1.
The vector pCA24N which contained the gene encoding acyl-CoA thioesterase 2 (TesB) from Escherichia coli was purchased from NAIST (Nara Institute of Science and Technology, Japan, ASKA collection). This vector provided contained a stretch of 6 histidine codons after the methionine initiation codon.
The corresponding enzymes were produced according to the procedure described in Example 1.
(§3) The enzymatic assays were conducted in a total reaction volume of 0.2 ml.
as §2
10 mM 3-methylcrotonyl-CoA (Sigma-Aldrich)
1 mg/ml of purified recombinant thioesterase.
Control assays were performed in which either no enzyme was added or no substrate was added.
The assays were incubated for 30 min with shaking at 30° C., the reactions were stopped by the addition of 0.1 ml of acetonitrile and the samples were then analyzed by HPLC-based procedure.
HPLC analysis was performed using an 1260 Infinity LC System (Agilent), equipped with a column heating module and a UV detector (210 nm). […] The separation was performed using mixed A (H2O containing 8.4 mM sulfuric acid) and B (acetonitrile) solutions in a linear gradient (0% B at initial time 0 min→70% B at 8 min). […]

[4] = Formation of 3-hydroxyisovaleryl phosphate from 3-hydroxyisovaleryl-CoA and phosphate (MS); conditions: 10 mM 3-hydroxyisovaleryl-CoA, mass spectrometry
Method: The studied enzymatic reaction was carried out under the following conditions:
10 mM 3-hydroxyisovaleryl-CoA (3-hydroxy-3-methylbutyryl-CoA)
The purified phosphate butyryltransferase from B. subtilis was resuspended in 5 mM potassium phosphate pH 7.5.
A control assay without enzyme was performed in parallel.
The enzymatic assay was initiated by the addition of 20 μl of enzyme preparation into 20 μl of reaction mixture. The formation of 3-hydroxyisovaleryl phosphate (3-hydroxy-3-methylbutyryl phosphate) was analyzed by Mass Spectrometry (MS). 5 μl of the assay was introduced into the mass spectrometer via a loop injection.
Flow injection analyses were performed using a Dionex Ultimate chromatographic system (Thermo Fisher Scientific) at a flow rate of 100 μL/min with a mobile phase composed of H2O containing 10 mM ammonium formate pH 9.45 and acetonitrile 75:25 v/v. Detection was performed with a Q-exactive spectrometer (Thermo Fisher Scientific) fitted with an electrospray ionization source (negative ionization mode at a resolution of 70000 m/Δm, FWHM at m/z 200). Non-resonant induced dissociation experiments—Higher-energy C-trap dissociation (HCD)—were acquired at normalized collision energy of 10%. Raw data were manually inspected using the Qualbrowser module of Xcalibur version 3.0 (Thermo Fisher Scientific). […]

[5] = Conversion of 3-hydroxyisovaleryl-CoA and ADP into 3-hydroxyisovaleric acid and ATP, phosphate butyryltransferase from Bacillus subtilis with butyrate kinases; conditions: 4 mM 3-hydroxyisovaleryl-CoA, 4 mM ADP, 0.2 mg/ml each enzyme, 20 min, 30° C.
Method: as §3, §2
(§4) 50 mM potassium phosphate buffer pH 7.5
4 mM 3-hydroxyisovaleryl-CoA
(§5) 0.2 mg/ml of purified phosphate butyryltransferase from Bacillus subtilis
(§6) 0.2 mg/ml of purified butyrate kinase from Lactobacillus casei or Geobacillus sp.
A series of controls were performed in parallel (Assays C-H; Table 4).
The assays were then incubated for 20 min with shaking at 30° C.
(§7) After an incubation period, the reactions were stopped by heating the reaction medium 4 min at 90° C. The samples were centrifuged, filtered through a 0.22 μm filter and the clarified supernatants were transferred into a clean vial for further analysis. The consumption of ADP and 3-hydroxyisovaleryl-CoA, and the formation of ATP, 3-hydroxyisovaleric acid and free coenzyme A (CoA-SH) were followed by using HPLC-based methods.
HPLC analysis was performed using 1260 Infinity LC System (Agilent), equipped with column heating module and RI detector. 2 μl of samples were separated on Polaris C18-A column (150×4.6 mm, 5 μm particle size, column temp. 30° C.) with a mobile phase flow rate of 1.5 ml/min. The separation was performed using 8.4 mM sulfuric acid in H2O/MeOH mixed solution (99/1) (V/V). In these conditions, the retention time of ADP, ATP and 3-hydroxyisovaleric acid were 2.09 min, 2.26 min and 5.01 min, respectively. […]

[6] = Conversion of 3-methylcrotonyl-CoA and ADP into 3-methylcrotonic acid and ATP, phosphate butyryltransferase from Bacillus subtilis with butyrate kinases; conditions: 4 mM 3-methylcrotonyl-CoA, 4 mM ADP, 0.2 mg/ml each enzyme, 20 min, 30° C.
Method: as §3, §2, §4
4 mM 3-methylcrotonyl-CoA
as §5, §6
Assays were then incubated for 20 min with shaking at 30° C.
as §7, with “3-methylcrotonyl-CoA,” for “3-hydroxyisovaleryl-CoA,”, “3-methylcrotonic” for “3-hydroxyisovaleric”
HPLC analysis was performed using the 1260 Infinity LC System (Agilent) equipped with a column heating module and an RI detector. 2 μl of samples were separated on a Polaris C18-A column (150×4.6 mm, 5 μm particle size, column temp. 30° C.) with a mobile phase flow rate of 1.5 ml/min. The consumption of ADP and the formation of ATP were followed by HPLC analysis according to the methods described in Example 10.
HPLC analysis was performed using the 1260 Infinity LC System (Agilent) equipped with a column heating module and a UV detector (260 nm). […]

B1: 3-Hydroxypropionyl-CoA dehydratase from Metallosphaera sedula: recombinant His-tagged 3-hydroxypropionyl-CoA dehydratase (EC 4.2.1.116) from Metallosphaera sedula, Uniprot A4YI89 (protein, listed as Metallosphaera sedula)
chain: MEFETIETKKEGNLFWITLNRPDKLNALNAKLLEELDRAVSQAESDPEIRVIIITGKGKAFCAGADITQFNQLTPAEAWKFSKKGREIMDKIEALSKPTIAMINGYALGGGLELALACDIRIAAEEAQLGLPEINLGIYPGYGGTQRLTRVIGKGRALEMMMTGDRIPGKDAEKYGLVNRVVPLANLEQETRKLAEKIAKKSPISLALIKEVVNRGLDSPLLSGLALESVGWGVVFSTEDKKEGVSAFLEKREPTFKGK
modifications: His tag; strain ATCC 51363 /DSM 5348
notes: recombinant His-tagged 3-hydroxypropionyl-CoA dehydratase (EC 4.2.1.116) from Metallosphaera sedula, Uniprot A4YI89
[1]
  Km: 300 µM
  kcat for 3-methylcrotonyl-CoA: 10 s⁻¹

B2: tesB Pseudomonas putida: acyl-CoA thioesterase II from Pseudomonas putida, Uniprot Q88DR1 (protein, listed as Pseudomonas putida)
chain: MSHVLDDLVDLLSLESIEENLFRGRSQDLGFRQLYGGQVLGQSLSAASQTVEDARHVHSLHGYFLRPGDASLPVVYSVDRVRDGGSFSTRRVTAIQKGQTIFTCSASFQYDEEGFEHQAQMPDVVGPENLPTEVELAHAMADQLPERIRDKVLCAKPIEIRPVTERDPFNPKPGDPVKYAWFRADGNLPDVPALHKYMLAYASDFGLLTTALLPHGKSVWQRDMQIASLDHSLWFHGNLRADQWLLYATDSPWAGNSRGFCRGSIFNQAGQLVASSSQEGLIRHRKDWA
[2]
  Conversion, %: 58%
[3]
  3-methylcrotonic acid produced: 3.1 mM

B3: phosphate butyryltransferase from Bacillus subtilis: phosphate butyryltransferase (EC 2.3.1.19) from Bacillus subtilis (strain 168), Uniprot P54530 (protein, listed as Bacillus subtilis)
chain: MKLKDLIGKASIHKNKTIAVAHAEDEEVIRAVKLAAEHLSARFLLTGDSKKLNELTSSMQGHQVEIVHANTPEESAKLAVRAVHHKTADVLMKGNVPTSVLLKAVLNRQEGLRSASVLSHVAVFDIPDFDRLMFVTDSAMNIAPSLEELRQILQNAVHVAHAVGNNMPKAAALAAVETVNPKMEATVNAAALAQMYKRGQIKGCIVDGPLALDNAVSQIAAAQKKISGDVAGNADILLVPTIEAGNILYKSLIYFAKASVAAVITGAKAPIALTSRADSAENKLYSIALAICASEEYTH
modifications: strain 168
notes: phosphate butyryltransferase (EC 2.3.1.19) from Bacillus subtilis (strain 168), Uniprot P54530
[4]
  generation of 3-hydroxyisovaleryl phosphate: generation of 3-hydroxyisovaleryl phosphate in the enzyme catalyzed assay was proved by MS technique
[5]
  production of 3-hydroxyisovaleric acid and ATP: significant production of 3-hydroxyisovaleric acid, without simultaneous generation of ATP
[6]
  production of 3-methylcrotonic acid and ATP: significant production of 3-methylcrotonic acid without a simultaneous generation of ATP

B4: tesB Escherichia coli: acyl-CoA thioesterase 2 from E. coli, Uniprot P0AGG2 (protein, listed as Escherichia coli)
chain: MSQALKNLLTLLNLEKIEEGLFRGQSEDLGLRQVFGGQVVGQALYAAKETVPEERLVHSFHSYFLRPGDSKKPIIYDVETLRDGNSFSARRVAAIQNGKPIFYMTASFQAPEAGFEHQKTMPSAPAPDGLPSETQIAQSLAHLLPPVLKDKFICDRPLEVRPVEFHNPLKGHVAEPHRQVWIRANGSVPDDLRVHQYLLGYASDLNFLPVALQPHGIGFLEPGIQIATIDHSMWFHRPFNLNEWLLYSVESTSASSARGFVRGEFYTQDGVLVASTVQEGVMRNHN
modifications: strain K12
notes: acyl-CoA thioesterase 2 from E. coli, Uniprot P0AGG2
[2]
  Conversion, %: 52%
[3]
  3-methylcrotonic acid produced: 0.6 mM

Reference: patent US10676765B2, “Methods for producing 3-hydroxy-3-methylbutyric acid” (Global Bioenergies, priority 2015, dated 2020)
